pIC50: −log10 of the molar value.
Assays:
[1] = target: mouse E372K SH2B3 SH2 domain (residues 324-446) (mouse) (UniProt O09039); assay: SPR
[2] = target: mouse WT SH2B3 SH2 domain (residues 324-446) (mouse) (UniProt O09039); assay: SPR

pIC50 [1]: 6.16 | pIC50 [2]: 6.90
Substance: JAK2 pY813 peptide

Source: publication doi:10.1101/2023.04.27.538529
